One series has as its target T1, PAD (Heyndrickxia coagulans, UniProt A0A0C5C6Z1).
T1 construct: gene SB48_HM08orf00536; co-expressed with MapADO on one pET28 vector, E. coli BL21 (DE3) resting cells
T1 sequence (A0A0C5C6Z1 1-167): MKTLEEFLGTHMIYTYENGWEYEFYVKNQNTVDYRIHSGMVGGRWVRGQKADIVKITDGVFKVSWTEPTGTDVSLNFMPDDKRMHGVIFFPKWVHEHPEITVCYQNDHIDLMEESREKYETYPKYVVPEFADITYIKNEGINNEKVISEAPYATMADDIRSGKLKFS
Description: whole-cell decarboxylation to 4-vinylguaiacol, HPLC. The class given is cell-based. As to conditions: co-expressed with MapADO; 200 mM phosphate pH 7.4, 30 °C.

For another series, the target named is T2, MapADO (Moesziomyces aphidis, UniProt W3VHW6).
T2 construct: gene PaG_05861; codon-optimized, pET-28a, His6 tag, E. coli BL21 (DE3), IMAC purified, FeCl2 supplemented
The series can be described thus: continuous UV-Vis initial rate of vanillin formation ([…] nm). It is filed as biochemical. As to conditions: O2 co-substrate; 10 mM potassium phosphate pH 7.4, 30 °C, 2% EtOH; initial-rate value taken (endpoint HPLC fit also printed in the 2nd table, row 3).

Substrate in series [1]: C=Cc1ccc(O)c(OC)c1
The series can be described thus: endpoint HPLC-UV. The class given is biochemical, Moesziomyces aphidis. As to conditions: O2 co-substrate, 10 mM potassium phosphate pH 7.4, 30 °C, 2% EtOH, endpoint measurement (authors: endpoint overestimates kcat and KM). An excerpt:
(§1) endpoint HPLC-UV on MapADO

Substrate in series [2]: Oc1ccc(/C=C/c2cc(O)cc(O)c2)cc1
Description: endpoint HPLC-UV. It is filed as biochemical, Moesziomyces aphidis. As to conditions: O2 co-substrate, 10 mM potassium phosphate pH 7.4, 30 °C, 2% EtOH, endpoint measurement (authors: endpoint overestimates kcat and KM).
Description: as §1

Substrate in series [3]: COc1cc(/C=C/CO)ccc1O
The series can be described thus: UV-Vis spectrophotometric initial rate. The class given is biochemical, Moesziomyces aphidis. As to conditions: O2 co-substrate, 10 mM potassium phosphate pH 7.4, 30 °C, 2% EtOH. From the text:
UV-Vis spectrophotometric initial rate on MapADO

The values that follow come from publication PMC12333492, “Co-enzyme-free, enzymatic synthesis of aldehydes from renewable resources with a new and highly efficient alkene cleaving dioxygenase” (Green Chemistry, 2025).

Usually Km stands for the substrate concentration at which the rate is half of its maximum. As a reminder, the kcat is the number of substrate molecules converted per active site and unit of time at saturation.

Consider `COc1cc(/C=C/C(=O)O)ccc1O` [2a, ferulic acid], for which, on PAD, the “whole-cell decarboxylation to 4-vinylguaiacol, HPLC” value is “The decarboxylation was effective and resulted in the rapid accumulation of 2b”.

For the molecule `CC=Cc1ccc(O)c(OC)c1` [1b, isoeugenol], the Km at MapADO stood at 118 ± 13 µM.

B1: MapADO (Moesziomyces aphidis) (protein)
chain: MAPTATQEPVPVPVTSKAAPSHGYVHPTDILPSGWPTATDLSGGAQPRRFEGTIFDVMTRGTIPKELHGTFYRIMPDYAQPPTYYKGGELNAPIDGDGTVAAFRFKDGKVDYRQRFVETDRFKVERRARKSMYGLYRNPYTHHPCVRQTVESTANTNVVMHAGRFLAMKENGNAYEMDPHTLKTLGYNPFNLPSKTMTAHPKQCSVTGNLVGFGYEAKGLATKDVYYFEVDPSGKVVRDLWLEAPWCAFIHDCALTPNYLVLMLWPFEANLERMKAGGHHWAYDYTKPITWITIPRGAKSKDEVKYWHWKNGMPIHTASGFEDEQGRIIIDSSLVHGNAFPFFPPDSDEQKKKQEADGTPKAQFVRWTIDPRKDNNEQLPDPEVILDTPSEFPQIDNRFMGVEYSSAFINVFVPDRSDGNKNVFQGLNGLAHYKRKEGTTEWYYAGDNCLIQEPVFSPRSKDAPEGDGFVLAIVDRLDLNRSEVVVIDTRDFTKAVAAVQLPFAIRSGIHGQWIPGEVTPDFETKGLVDLPKEEHWAPLSQSPYDPDA
notes: codon-optimized, pET-28a, His6 tag, E. coli BL21 (DE3), IMAC purified, FeCl2 supplemented
For B1, the values for the Km (in “endpoint HPLC-UV [1]”; in the series “endpoint HPLC-UV [2]”; in series [3]) were 220 ± 46 µM, 49 ± 9 µM and 445 ± 125 µM, respectively. Besides, the figures for the kcat (in the series “endpoint HPLC-UV [1]”; in “endpoint HPLC-UV [2]”; in series [3]) were 361 ± 12 s⁻¹, 3.2 ± 0.1 s⁻¹ and 90 ± 8 s⁻¹, respectively.
